# Experiments:
# [1] = target: FGF receptor 2b (FGFR2b) naturally expressed on 4MBr-5 rhesus monkey bronchial epithelial cells (rhesus monkey); test: cell-based or functional assay
# [2] = target: FGFR2 receptor endogenously expressed on mammary adenocarcinoma MCF7 cells (UniProt P21802); test: cell-based or functional assay
# Sequence of FGFR2 receptor endogenously expressed on mammary adenocarcinoma MCF7 cells (P21802 22-821): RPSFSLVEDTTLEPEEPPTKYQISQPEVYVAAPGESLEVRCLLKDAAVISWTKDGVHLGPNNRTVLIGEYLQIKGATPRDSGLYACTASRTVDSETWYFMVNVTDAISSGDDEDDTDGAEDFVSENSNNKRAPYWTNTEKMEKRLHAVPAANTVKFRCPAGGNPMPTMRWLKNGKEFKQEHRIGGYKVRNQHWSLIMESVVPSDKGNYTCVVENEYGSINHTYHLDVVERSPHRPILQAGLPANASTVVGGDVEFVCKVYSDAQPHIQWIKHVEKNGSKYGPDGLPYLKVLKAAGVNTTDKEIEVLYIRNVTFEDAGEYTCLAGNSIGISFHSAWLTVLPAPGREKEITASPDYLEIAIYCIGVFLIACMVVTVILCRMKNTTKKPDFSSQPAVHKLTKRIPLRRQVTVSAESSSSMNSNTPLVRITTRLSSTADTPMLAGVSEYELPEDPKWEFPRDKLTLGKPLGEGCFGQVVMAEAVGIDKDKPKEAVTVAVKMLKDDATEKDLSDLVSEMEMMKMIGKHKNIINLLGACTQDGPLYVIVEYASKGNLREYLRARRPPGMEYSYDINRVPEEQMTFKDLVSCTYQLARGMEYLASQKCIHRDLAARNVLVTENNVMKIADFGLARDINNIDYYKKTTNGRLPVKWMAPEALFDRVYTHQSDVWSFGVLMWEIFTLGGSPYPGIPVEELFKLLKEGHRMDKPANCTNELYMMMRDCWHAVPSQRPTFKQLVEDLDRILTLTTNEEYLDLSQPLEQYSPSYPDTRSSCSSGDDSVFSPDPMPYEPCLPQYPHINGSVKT
Substance,"ED50, proliferation of 4MBr-5 cells (resazurin) [1] [ng/mL]","ED50, proliferation of lung epithelial 4MBr-5 cells (resazurin) [1] [ng/mL]",ED50 (ng/mL) determined using 4MBr-5 cells; no preincubation (control) [1] [ng/mL],ED50 (ng/mL) determined using 4MBr-5 cells; protein preincubated at 37° C. for 1 day [1] [ng/mL],ED50 (ng/mL) determined using 4MBr-5 cells; protein preincubated at 37° C. for 3 days [1] [ng/mL],ED50 (ng/mL) determined using 4MBr-5 cells; protein preincubated at 37° C. for 7 days [1] [ng/mL],"pKrox24 (MapERK)-DsRed reporter induction in MCF7 cells, 100 ng/mL, 24 hr (times, against FGF10-wt) [2]"
FGF10 from Falco peregrinus (FGF10-Fp) (ligand),12.7,–,–,–,–,–,–
FGF10 single-point mutant L152F (ligand),–,1.4,–,–,–,–,–
FGF10-Fp+L152F (single point variant of FGF10-Fp) (ligand),6.1,–,–,–,–,–,–
FGF10-STAB (4-point mutant of FGF10: V123I+L152F+Q175E+N181D) (ligand),0.21,–,0.37,1,0.26,11.1,2.5
"FGF10-wt (recombinant mature human FGF10, Leu40-Ser208, with N-terminal His-tag and thrombin cleavage site) (ligand)",–,0.8,0.95,12.5,21.1,34.8,–
FGF10^69-208+L152F (ligand),1.9,–,–,–,–,–,–

# Source: patent US20250353888A1
